Experimental data from publication PMC6668440, “A one-gate elevator mechanism for the human neutral amino acid transporter ASCT2” (Nature Communications, 2019).

Biological target: the molecule itself
Experiment: cryo-EM structure; single particle cryo-EM of the purified transporter in mixed DDM + CHS micelles (20 mM Tris-HCl pH 7.4, 300 mM NaCl); ASCT2_(C467R) with 1 mM DL-TBOA and without inhibitor, ASCT2wt without substrate; C3 symmetry imposed, classifications without symmetry also done

B1: human Alanine Serine Cysteine Transporter 2 with the C467R mutation (ASCT2_(C467R)) (natural protein)
chain: MVADPPRDSKGLAAAEPTANGGLALASIEDQGAAAGGYCGSRDQVRRCLRANLLVLLTVVAVVAGVALGLGVSGAGGALALGPERLSAFVFPGELLLRLLRMIILPLVVCSLIGGAASLDPGALGRLGAWALLFFLVTTLLASALGVGLALALQPGAASAAINASVGAAGSAENAPSKEVLDSFLDLARNIFPSNLVSAAFRSYSTTYEERNITGTRVKVPVGQEVEGMNILGLVVFAIVFGVALRKLGPEGELLIRFFNSFNEATMVLVSWIMWYAPVGIMFLVAGKIVEMEDVGLLFARLGKYILCCLLGHAIHGLLVLPLIYFLFTRKNPYRFLWGIVTPLATAFGTSSSSATLPLMMKCVEENNGVAKHISRFILPIGATVNMDGAALFQCVAAVFIAQLSQQSLDFVKIITILVTATASSVGAAGIPAGGVLTLAIILEAVNLPVDHISLILAVDWLVDRSRTVLNVEGDALGAGLLQNYVDRTESRSTEPELIQVKSELPLDPLPVPTEEGNPLLKHYRGPAGDATVASEKESVM
notes: human ASCT2 (SLC1A5), codon optimised gene on the pPICZ-A plasmid, with the single point mutation C467R; residues 43-159 and 177-489 were modelled in the map; Homotrimer (172 kDa) in DDM + CHS micelles; the tag and the limits are not described here; also called SLC1A5 C467R; source: Pichia pastoris X-33, purified (DDM/CHS solubilisation, Ni2+-Sepharose, Superdex 200 SEC)
  stoichiometry N: 3

B2: human Alanine Serine Cysteine Transporter 2, wild type (ASCT2wt) (natural protein)
chain: MVADPPRDSKGLAAAEPTANGGLALASIEDQGAAAGGYCGSRDQVRRCLRANLLVLLTVVAVVAGVALGLGVSGAGGALALGPERLSAFVFPGELLLRLLRMIILPLVVCSLIGGAASLDPGALGRLGAWALLFFLVTTLLASALGVGLALALQPGAASAAINASVGAAGSAENAPSKEVLDSFLDLARNIFPSNLVSAAFRSYSTTYEERNITGTRVKVPVGQEVEGMNILGLVVFAIVFGVALRKLGPEGELLIRFFNSFNEATMVLVSWIMWYAPVGIMFLVAGKIVEMEDVGLLFARLGKYILCCLLGHAIHGLLVLPLIYFLFTRKNPYRFLWGIVTPLATAFGTSSSSATLPLMMKCVEENNGVAKHISRFILPIGATVNMDGAALFQCVAAVFIAQLSQQSLDFVKIITILVTATASSVGAAGIPAGGVLTLAIILEAVNLPVDHISLILAVDWLVDRSCTVLNVEGDALGAGLLQNYVDRTESRSTEPELIQVKSELPLDPLPVPTEEGNPLLKHYRGPAGDATVASEKESVM
notes: human ASCT2 (SLC1A5), codon optimised gene on the pPICZ-A plasmid; Only a map (6.98 Å, C3 imposed) was deposited, no model; also called SLC1A5
  binding result: binds
